B1: Zinc transporter 6 (Homo sapiens), Q6NXT4 (parent)
chain: MGTIHLFRKPQRSFFGKLLREFRLVAADRRSWKILLFGVINLICTGFLLMWCSSTNSIALTAYTYLTIFDLFSLMTCLISYWVTLRKPSPVYSFGFERLEVLAVFASTVLAQLGALFILKESAERFLEQPEIHTGRLLVGTFVALCFNLFTMLSIRNKPFAYVSEAASTSWLQEHVADLSRSLCGIIPGLSSIFLPRMNPFVLIDLAGAFALCITYMLIEINNYFAVDTASAIAIALMTFGTMYPMSVYSGKVLLQTTPPHVIGQLDKLIREVSTLDGVLEVRNEHFWTLGFGSLAGSVHVRIRRDANEQMVLAHVTNRLYTLVSTLTVQIFKDDWIRPALLSGPVAANVLNFSDHHVIPMPLLKGTDDLNPVTSTPAKPSSPPPEFSFNTPGKNVNPVILLNTQTRPYGFGLNHGHTPYSSMLNQGLGVPGIGATQGLRTGFTNIPSRYGTNNRIGQPRP

Variants of: B1
Settings: with znt5_human SLC30A5, Q8TAD4
znt5_human SLC30A5, Q8TAD4, sequence (Q8TAD4 whole entry): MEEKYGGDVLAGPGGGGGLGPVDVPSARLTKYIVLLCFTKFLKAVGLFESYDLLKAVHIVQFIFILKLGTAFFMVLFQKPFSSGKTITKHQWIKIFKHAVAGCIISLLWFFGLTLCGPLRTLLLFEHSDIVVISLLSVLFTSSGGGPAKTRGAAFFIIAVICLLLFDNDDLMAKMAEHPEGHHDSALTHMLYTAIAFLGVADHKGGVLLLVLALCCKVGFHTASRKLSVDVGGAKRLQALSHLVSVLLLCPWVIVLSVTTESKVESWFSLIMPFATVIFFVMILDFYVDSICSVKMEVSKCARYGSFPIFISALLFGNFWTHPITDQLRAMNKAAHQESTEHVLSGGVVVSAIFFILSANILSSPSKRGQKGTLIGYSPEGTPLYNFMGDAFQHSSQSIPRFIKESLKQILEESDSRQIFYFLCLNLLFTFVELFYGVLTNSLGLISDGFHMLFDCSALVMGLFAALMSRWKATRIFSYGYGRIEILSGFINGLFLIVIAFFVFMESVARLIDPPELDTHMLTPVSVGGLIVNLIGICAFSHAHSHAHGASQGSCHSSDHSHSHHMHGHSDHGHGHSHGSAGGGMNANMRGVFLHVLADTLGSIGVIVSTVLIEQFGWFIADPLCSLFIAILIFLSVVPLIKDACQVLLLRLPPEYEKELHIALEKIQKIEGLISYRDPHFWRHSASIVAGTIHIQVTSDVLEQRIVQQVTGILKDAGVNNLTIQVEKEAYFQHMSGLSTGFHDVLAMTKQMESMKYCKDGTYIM

| Variant | effect of a mutation on the interaction |
| --- | --- |
| L66H;F201H | with no effect |
| D70A;D205A | with no effect |

— IntAct's records for PubMed 19759014
